One block for each binder: values may come before it.
Tests used:
[1] = target: T1, Cdc45-5FLAG (S. cerevisiae), Q08032; assay: co-sedimentation; details: remark: other sources report otherwise
T1 chain: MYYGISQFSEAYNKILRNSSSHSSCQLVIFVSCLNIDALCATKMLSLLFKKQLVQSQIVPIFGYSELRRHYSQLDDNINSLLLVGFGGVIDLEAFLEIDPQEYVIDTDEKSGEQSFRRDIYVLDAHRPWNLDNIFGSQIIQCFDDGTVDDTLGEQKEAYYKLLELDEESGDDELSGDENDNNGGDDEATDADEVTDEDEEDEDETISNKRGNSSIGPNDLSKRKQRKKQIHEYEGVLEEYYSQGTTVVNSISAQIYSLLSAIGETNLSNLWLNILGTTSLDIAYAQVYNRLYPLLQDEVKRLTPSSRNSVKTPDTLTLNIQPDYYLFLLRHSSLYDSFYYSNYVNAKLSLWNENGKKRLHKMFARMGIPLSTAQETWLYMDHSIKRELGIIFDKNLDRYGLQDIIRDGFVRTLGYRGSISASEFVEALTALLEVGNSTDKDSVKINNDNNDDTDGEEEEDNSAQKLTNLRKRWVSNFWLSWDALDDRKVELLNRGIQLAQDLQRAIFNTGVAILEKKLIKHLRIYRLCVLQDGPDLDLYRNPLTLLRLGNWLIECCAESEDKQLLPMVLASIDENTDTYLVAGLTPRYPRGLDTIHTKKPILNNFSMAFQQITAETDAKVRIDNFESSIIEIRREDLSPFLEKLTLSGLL

[2] = target: the molecule itself; assay: co-sedimentation

stoichiometry N [1]: 2
B1: Cdc45-5FLAG, Q08032 1-650 (natural protein)
chain: T1 chain

B2: Psf2-5FLAG (natural protein)
chain: MSLPAHLQQTFSPEEIQFIVENEPIKIFPRITTRQKIRGDDRGTGNHTRWQLITTDDKALNNMVAMRSTEVVLWIALLLKQQSKCSIVAPQWLTTKELDRKIQYEKTHPDRFSELPWNWLVLARILFNKAKDDFHDPIHELRGKIQDLREIRQIKVLKGLKYLNESHLQLDNLSLLEINELRPFITEIMDKLREIHTASLTAGTENDEEEFNI
stoichiometry N [2]: 2

From article doi:10.1101/388470 (bioRxiv, 2018)
